This is an account of results in patent publication US20160083713.

Data set [1] concerns T1, Protein 3: Erythrobacter sp. SD-21 PAL-like domain with N-terminal TAP purification tag (ribosomal protein L9 from T. maritima) and HRV14 3C protease site linker.
T1 sequence: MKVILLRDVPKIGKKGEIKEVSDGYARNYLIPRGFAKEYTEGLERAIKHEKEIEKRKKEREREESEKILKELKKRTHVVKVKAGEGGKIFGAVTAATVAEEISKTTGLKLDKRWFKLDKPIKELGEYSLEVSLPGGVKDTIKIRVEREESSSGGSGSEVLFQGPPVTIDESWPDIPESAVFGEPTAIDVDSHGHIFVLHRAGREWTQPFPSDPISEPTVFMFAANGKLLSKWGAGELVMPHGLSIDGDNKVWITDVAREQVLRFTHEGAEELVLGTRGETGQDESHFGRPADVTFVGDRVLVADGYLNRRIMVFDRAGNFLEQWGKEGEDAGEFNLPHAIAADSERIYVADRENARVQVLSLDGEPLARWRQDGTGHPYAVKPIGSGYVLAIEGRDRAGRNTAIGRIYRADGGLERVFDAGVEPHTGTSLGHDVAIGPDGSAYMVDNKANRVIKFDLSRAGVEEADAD

Data set [2] concerns T2, Protein 8: Exiguobacterium PAL-like domain with N-terminal TAP purification tag and HRV14 3C protease site linker.
T2 sequence: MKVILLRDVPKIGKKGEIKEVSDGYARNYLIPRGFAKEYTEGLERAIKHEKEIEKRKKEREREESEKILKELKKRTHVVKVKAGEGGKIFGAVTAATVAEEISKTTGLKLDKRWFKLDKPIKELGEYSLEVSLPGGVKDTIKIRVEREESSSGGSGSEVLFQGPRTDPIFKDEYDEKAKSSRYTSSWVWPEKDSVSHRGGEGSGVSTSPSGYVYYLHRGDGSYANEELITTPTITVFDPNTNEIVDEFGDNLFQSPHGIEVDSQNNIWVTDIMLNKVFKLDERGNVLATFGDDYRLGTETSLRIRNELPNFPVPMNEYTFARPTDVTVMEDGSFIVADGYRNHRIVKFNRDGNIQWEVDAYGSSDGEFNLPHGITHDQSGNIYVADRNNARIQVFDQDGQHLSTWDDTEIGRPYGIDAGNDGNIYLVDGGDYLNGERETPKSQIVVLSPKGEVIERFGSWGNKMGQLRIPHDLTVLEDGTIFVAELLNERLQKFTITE

In data set [3] the target is T3, TAP tagged amylin analog model peptide (SEQ ID NO:17), alpha-hydroxyglycine intermediate form.
T3 chain: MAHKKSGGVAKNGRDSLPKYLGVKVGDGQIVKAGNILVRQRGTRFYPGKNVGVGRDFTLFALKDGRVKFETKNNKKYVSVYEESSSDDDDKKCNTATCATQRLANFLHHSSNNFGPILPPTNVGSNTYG

For data set [4], the target named is C-terminal alpha-hydroxyglycine extended Pramlintide (alpha-hydroxylated SEQ ID NO:25).
Data set [5] concerns the target T4, TAP tagged C-terminal Gly extended amylin analog model peptide (SEQ ID NO:17), precursor form.
T4 chain: T3 chain

For data set [6], the target named is C-terminally Gly-extended Pramlintide (SEQ ID NO: 25).

In the case of “TAP tagged HRV14 3C protease (from WO 2008/043847)”, the “proteolytic cleavage at the linker, LC-MS and SDS-PAGE, overnight at 30 C, enzyme to substrate 1:25” value in data set [1] is “resulted in two fragments determined to 33323 Da and 18284.78 Da corresponding to the released PAL-like domain ... and to the released purification tag and HRV14 3C linker”. Besides, the “proteolytic cleavage at the linker, SDS-PAGE, overnight, enzyme to substrate 1:25” value in data set [2] is “two fragments corresponding to the mature Exiguibacterium PAL-like domain (SEQ ID NO:2) (upper band) and the released TAP tag (SEQ ID NO:7-SEQ ID NO:8) (lower band) was present in the application”.

B1: Protein 10: Planctomyces DSM 8797 PAL-like domain with N-terminal TAP purification tag and HRV14 3C protease site linker (protein)
chain: MKVILLRDVPKIGKKGEIKEVSDGYARNYLIPRGFAKEYTEGLERAIKHEKEIEKRKKEREREESEKILKELKKRTHVVKVKAGEGGKIFGAVTAATVAEEISKTTGLKLDKRWFKLDKPIKELGEYSLEVSLPGGVKDTIKIRVEREESSSGGSGSEVLFQGPADKIDFEPAAINIELPEGLALGPASAVDFDSKGRMYLFHRGPQPILVFDQSGKFVRSWGDKLISQAHGLRVAPDETIWVTDIGNHMVFQFNPEGKLLLALGQAGKPGDSQDQFNKPTDIAFGPQGEFYISDGYGNSRVMKFAANGKNLGQWGTPGKGPGEFNLPHSILVDAKGRVLVGDRENDRVQIFDLEGNLLEIWTGFAPYGMEFDSRGNLFVADGRANKVLQLNASGKVENSWGKTGKEPGEYNLPHMLAVDAAGNLFVTEIGGKRLQKLQRK
For B1, the “conversion to the alpha amidated form, LC-MS, co-incubation with rat PHM at 37 C” value in data set [3] is listed as “With protein 10 total conversion of the precursor was observed already after 1 h-2 h incubation”.

B2: Erythrobacter PAL-like domain (SEQ ID NO: 1) (protein)
chain: GPPVTIDESWPDIPESAVFGEPTAIDVDSHGHIFVLHRAGREWTQPFPSDPISEPTVFMFAANGKLLSKWGAGELVMPHGLSIDGDNKVWITDVAREQVLRFTHEGAEELVLGTRGETGQDESHFGRPADVTFVGDRVLVADGYLNRRIMVFDRAGNFLEQWGKEGEDAGEFNLPHAIAADSERIYVADRENARVQVLSLDGEPLARWRQDGTGHPYAVKPIGSGYVLAIEGRDRAGRNTAIGRIYRADGGLERVFDAGVEPHTGTSLGHDVAIGPDGSAYMVDNKANRVIKFDLSRAGVEEADAD
Turning to B2, in data set [4], the “conversion of the alpha-hydroxyglycine intermediate to alpha amidated Pramlintide, LC-MS, 37 C, 1 h” value is “could almost completely convert the peptide substrate to fully alpha-amidated peptide using a enzyme to substrate ratio of 1:100”.

B3: Protein 3: Erythrobacter sp. SD-21 PAL-like domain with N-terminal TAP purification tag (ribosomal protein L9 from T. maritima) and HRV14 3C protease site … (protein)
chain: T1 sequence
For the molecule B3, the “conversion to the alpha amidated form, LC-MS, co-incubation with rat PHM at 37 C” value in data set [3] was “near complete conversion to the alpha amidated form required 5 hours incubation with the protein 3 enzyme”.

B4: Planctomyces PAL-like domain (SEQ ID NO: 4) (protein)
chain: GPADKIDFEPAAINIELPEGLALGPASAVDFDSKGRMYLFHRGPQPILVFDQSGKFVRSWGDKLISQAHGLRVAPDETIWVTDIGNHMVFQFNPEGKLLLALGQAGKPGDSQDQFNKPTDIAFGPQGEFYISDGYGNSRVMKFAANGKNLGQWGTPGKGPGEFNLPHSILVDAKGRVLVGDRENDRVQIFDLEGNLLEIWTGFAPYGMEFDSRGNLFVADGRANKVLQLNASGKVENSWGKTGKEPGEYNLPHMLAVDAAGNLFVTEIGGKRLQKLQRK
As for B4, the “conversion of the alpha-hydroxyglycine intermediate to alpha amidated Pramlintide, LC-MS, 37 C, 1 h” value in data set [4] is listed as “could almost completely convert the peptide substrate to fully alpha-amidated peptide using a enzyme to substrate ratio of 1:100”.

B5: rat PHM domain (amino acids 36 to 497 of the 976 aa full-length rat PAM sequence), His tagged (protein)
chain: FKETTRSFSNECLGTIGPVTPLDASDFALDIRMPGVTPKESDTYFCMSMRLPVDEEAFVIDFKPRASMDTVHHMLLFGCNMPSSTGSYWFCDEGTCTDKANILYAWARNAPPTRLPKGVGFRVGGETGSKYFVLQVHYGDISAFRDNHKDCSGVSVHLTRVPQPLIAGMYLMMSVDTVIPPGEKVVNADISCQYKMYPMHVFAYRVHTHHLGKVVSGYRVRNGQWTLIGRQNPQLPQAFYPVEHPVDVTFGDILAARCVFTGEGRTEATHIGGTSSDEMCNLYIMYYMEAKYALSFMTCTKNVAPDMFRTIPAEANIPIPVKPDMVMMHGHHKEAENKEKSALMQQPKQGEEEVLEQGDFYSLLSKLLGEREDVHVHKYNPTEKTESGSDLVAEIANVVQKKDLGRSDAREGAEHEEWGNAILVRDRIHRFHQLESTLRPAESRAFSFQQPGEGPWEPEPSG
Turning to B5, the “conversion of the C-terminal Gly to alpha-hydroxyglycine, LC-MS after 2 hours at 37 C” value in data set [5] is recorded as “the vast majority of the model peptide was on the intermediate form comprising a α-hydroxyglycine in the C-terminal”. The “conversion of Gly-extended Pramlintide to the alpha-hydroxyglycine form, LC-MS, enzyme to substrate 1:20 (w/w), 37 C, 2 h” value in data set [6] is recorded as “it was verified that the intermediate alpha-hydroxyglycine form of Pramlintide was obtained”.
